One experiment concerns the target T1, Rat PRLR (Rattus norvegicus, UniProt P05710).
T1 sequence (P05710 20-229 limits assumed): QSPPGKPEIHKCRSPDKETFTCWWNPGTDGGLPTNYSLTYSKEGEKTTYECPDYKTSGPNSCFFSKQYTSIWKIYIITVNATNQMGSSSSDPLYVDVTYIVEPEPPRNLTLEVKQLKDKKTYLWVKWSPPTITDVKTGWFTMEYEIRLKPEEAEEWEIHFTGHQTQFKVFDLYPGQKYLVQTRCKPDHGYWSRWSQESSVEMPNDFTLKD
Briefly: Cross species affinity analysis on covalently immobilized antibodies. The conditions noted are these: compared with human PRLR. In kind it is binding. The protocol:
(§1) In order to compare rat and mouse cross reactivity using covalently immobilized antibodies, a CM4 chip was coupled with he.06.642-2 and he.06.275-4 antibodies via standard EDC-NHS amine coupling chemistries according to the recommended protocol from BIACORE® Inc. The PRLR ECD injections were performed at five concentrations in a three fold titration series starting at 111 nM and going down to 1.37 nM. Regeneration was performed with Glycine pH3.0. The affinity of all of the HE variants of XHA.06.642 and XHA.06.275 are very similar to the affinity of the parental chimeric antibody. […] Antibody he.06.275-4 binds to Cyno PRLR with 5 fold weaker affinity than Human PRLR.

The next experiment concerns the target T2, Mouse PRLR (Mus musculus, UniProt Q08501).
T2 sequence (Q08501 20-229 limits assumed): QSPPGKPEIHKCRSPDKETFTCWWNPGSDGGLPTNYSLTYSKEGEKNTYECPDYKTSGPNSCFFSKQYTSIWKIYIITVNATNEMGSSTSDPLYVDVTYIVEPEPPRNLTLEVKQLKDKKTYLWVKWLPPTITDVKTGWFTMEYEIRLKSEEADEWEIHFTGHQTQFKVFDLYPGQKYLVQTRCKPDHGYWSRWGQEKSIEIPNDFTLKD
Described as above. The experiment is classed as binding. The protocol:
as §1

The next experiment has as its target T3, Human PRLR (Homo sapiens, UniProt P16471).
T3 construct: His6 (C); made in house; host or cells: Tn5 insect cells, baculovirus
T3 sequence (P16471 25-234): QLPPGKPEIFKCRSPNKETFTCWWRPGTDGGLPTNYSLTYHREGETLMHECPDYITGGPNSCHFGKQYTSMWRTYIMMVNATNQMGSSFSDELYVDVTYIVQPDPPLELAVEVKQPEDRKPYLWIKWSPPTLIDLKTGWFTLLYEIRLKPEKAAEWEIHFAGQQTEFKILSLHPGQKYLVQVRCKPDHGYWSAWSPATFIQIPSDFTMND
The experiment is described as above. The experiment is classed as binding. The conditions noted are these: Table 11, Human; covalently immobilized antibody; in 1/s. The method, then: as §1

The target of the next experiment is T4, Cyno PRLR (Macaca fascicularis, UniProt A0A2K5WXK1).
T4 construct: antibodies against human and cynomolgus PRLR ECD
T4 sequence (A0A2K5WXK1 25-234): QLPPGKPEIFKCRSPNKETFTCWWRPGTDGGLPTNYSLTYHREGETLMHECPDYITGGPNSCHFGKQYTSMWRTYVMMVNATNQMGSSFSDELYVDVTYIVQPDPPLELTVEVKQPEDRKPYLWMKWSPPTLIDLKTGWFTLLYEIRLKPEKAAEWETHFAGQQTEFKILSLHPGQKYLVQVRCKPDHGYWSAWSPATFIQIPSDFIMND
The description is as above. In kind it is binding, cynomolgus. The settings on record: Table 11, Cyno; covalently immobilized antibody; in 1/s. The method, then:
as §1

A further experiment deals with T5, human PRLR ECD (Homo sapiens, UniProt P16471).
T5 construct: His6 (C); made in house; host or cells: Tn5 insect cells, baculovirus
T5 sequence (P16471 25-234): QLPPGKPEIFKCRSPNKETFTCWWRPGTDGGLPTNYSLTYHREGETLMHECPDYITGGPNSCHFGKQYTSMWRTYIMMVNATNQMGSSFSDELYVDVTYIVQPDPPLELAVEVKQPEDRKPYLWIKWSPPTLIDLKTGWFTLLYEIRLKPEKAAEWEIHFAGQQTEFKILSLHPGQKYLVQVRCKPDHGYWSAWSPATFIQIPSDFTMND
Kind of experiment: Biacore kinetic titration, antibody captured on Protein A/G. In kind it is binding. The settings on record: Table 9, Human PRLR ECD; unit not given. The method, then: (§2) Affinity of the chimerized and HUMAN ENGINEERED™ antibodies determined by Biacore analysis. Briefly, a CM5 sensor chip (Biacore) immobilized with Protein A/G (Pierce) via NHS/EDC was used to capture approximately 600 RU of antibody on the chip surface. Five concentrations of PRLR ECD beginning at 5 ug/mL (185 nM) and serially diluted at 5× dilution to 0.3 nM were injected from lowest to highest concentration in the kinetic titration injection mode, and 15 minutes of dissociation data was collected. The experiments were double-referenced, i.e. an adjacent flow cell response was subtracted automatically, and the response from a buffer injection experiment was subtracted from the experimental data set. Kinetic and derived parameters (ka, kd and KD) were determined by fitting to a 1:1 Langmuir model using BiaEval software customized to the kinetic titration injection mode. Affinity measurements of both chimeric and all HUMAN ENGINEERED™ antibodies against human and cynomolgus PRLR ECD are summarized in Table 9 and Table 10.
(In general: SPR reads the build-up and loss of mass on a sensor chip optically.)

The target in another experiment is T6, cynomolgus PRLR ECD (Macaca fascicularis, UniProt A0A2K5WXK1).
T6 construct: antibodies against human and cynomolgus PRLR ECD
T6 sequence (A0A2K5WXK1 25-234): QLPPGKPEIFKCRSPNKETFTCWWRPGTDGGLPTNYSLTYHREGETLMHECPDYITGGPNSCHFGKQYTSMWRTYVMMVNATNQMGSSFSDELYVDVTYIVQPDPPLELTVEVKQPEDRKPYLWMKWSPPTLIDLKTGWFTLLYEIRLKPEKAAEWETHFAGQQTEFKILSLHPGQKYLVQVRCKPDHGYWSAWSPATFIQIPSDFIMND
The experiment is described as above. The experiment is classed as binding. The conditions noted are these: Table 9, Cyno PRLR ECD; unit not given. The method, then:
as §2

B1: he.06.275-4: HUMAN-ENGINEERED antibody from XHA.06.275; variable regions SEQ ID NO: 92 and SEQ ID NO: 94 by order of listing (antibody, V domains shown)
VH: QVQLQESGPGLVKPSQTLSLTCTVSGYSITSDYAWNWIRQFPGKGLEWMGYISYSGSTSYNPSLKSRITISRDTSKNQFSLQLNSVTAADTAVYFCARDYGYVFDYWGQGTTLTVSS
VL: DVQITQSPSSLSASPGDRITLTCRASKNIYKYLAWYQEKPGKANKLLIYSGSTLHSGIPSRFSGSGSGTDFTLTISSLQPEDFAMYYCQQHNDYPYTFGQGTKLEIK
In the case of B1, the “binding to Rat PRLR (in words)” value with Rat PRLR is “does not bind effectively”. Moreover, the “Murine KD/Human KD” value with Mouse PRLR was “Murine KD/Human KD = 13,548”. In the experiment with Mouse PRLR (compared with human PRLR), the “binding to Mouse PRLR (in words)” value is recorded as “does not bind effectively”. In addition, the koff with Human PRLR amounted to 4.5E−04; in the experiment with Cyno PRLR it was 8.2E−04. The ka came out at 6.2E+05 with human PRLR ECD and 3.6E+05 with cynomolgus PRLR ECD. Also, the kd in the experiment with human PRLR ECD was 3.2E−04; in the experiment with cynomolgus PRLR ECD it was 6.0E−04.

These data come from patent US9005614B2, “PRLR-specific antibody and uses thereof” (Novartis AG, priority 2006, dated 2015).
